Data as given in IntAct's records for PubMed 37582800.

B1: Protein MalY (Escherichia coli (strain K12)), P23256 (parent)
chain: MFDFSKVVDRHGTWCTQWDYVADRFGTADLLPFTISDMDFATAPCIIEALNQRLMHGVFGYSRWKNDEFLAAIAHWFSTQHYTAIDSQTVVYGPSVIYMVSELIRQWSETGEGVVIHTPAYDAFYKAIEGNQRTVMPVALEKQADGWFCDMGKLEAVLAKPECKIMLLCSPQNPTGKVWTCDELEIMADLCERHGVRVISDEIHMDMVWGEQPHIPWSNVARGDWALLTSGSKSFNIPALTGAYGIIENSSSRDAYLSALKGRDGLSSPSVLALTAHIAAYQQGAPWLDALRIYLKDNLTYIADKMNAAFPELNWQIPQSTYLAWLDLRPLNIDDNALQKALIEQEKVAIMPGYTYGEEGRGFVRLNAGCPRSKLEKGVAGLINAIRAVR
partner: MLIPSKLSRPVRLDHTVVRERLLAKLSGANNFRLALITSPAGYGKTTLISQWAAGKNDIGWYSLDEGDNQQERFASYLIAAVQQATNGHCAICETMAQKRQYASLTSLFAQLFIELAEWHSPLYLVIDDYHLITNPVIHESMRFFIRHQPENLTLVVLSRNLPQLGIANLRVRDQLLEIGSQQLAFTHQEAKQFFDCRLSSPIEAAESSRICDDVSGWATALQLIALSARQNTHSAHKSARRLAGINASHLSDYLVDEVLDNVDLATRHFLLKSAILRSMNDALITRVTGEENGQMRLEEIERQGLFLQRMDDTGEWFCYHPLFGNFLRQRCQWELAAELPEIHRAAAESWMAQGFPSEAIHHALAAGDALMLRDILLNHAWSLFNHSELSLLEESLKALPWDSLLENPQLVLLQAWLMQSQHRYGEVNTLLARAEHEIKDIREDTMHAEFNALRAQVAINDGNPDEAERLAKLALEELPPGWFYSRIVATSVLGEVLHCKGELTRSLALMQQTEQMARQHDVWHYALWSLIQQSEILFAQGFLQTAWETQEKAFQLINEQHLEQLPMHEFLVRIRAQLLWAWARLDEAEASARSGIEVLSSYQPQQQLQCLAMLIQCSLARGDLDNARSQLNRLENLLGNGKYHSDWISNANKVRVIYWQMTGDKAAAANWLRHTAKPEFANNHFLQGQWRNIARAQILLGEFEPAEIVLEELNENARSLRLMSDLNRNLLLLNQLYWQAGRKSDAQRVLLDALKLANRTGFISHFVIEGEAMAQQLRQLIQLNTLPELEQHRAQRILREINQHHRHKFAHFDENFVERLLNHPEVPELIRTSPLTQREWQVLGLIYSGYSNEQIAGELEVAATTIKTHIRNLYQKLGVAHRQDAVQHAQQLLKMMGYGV
B2: HTH-type transcriptional regulator MalT (Escherichia coli (strain K12)), P06993 (parent)
chain: B1 partner
partner: B1 chain

Variants of: B1
Conditions: with malt_ecoli malT

Variant | effect of a mutation on the interaction
D182A;E185A;S218A | with no effect

Variants of: B2
Conditions: with maly_ecoli malY

Variant | effect of a mutation on the interaction
E140A | with no effect
R143A | disrupting interaction strength
N169A | with no effect
R173A | disrupting interaction strength
R143A;R173A | disrupting interaction strength
